From the supplement of paper PMC10724198
± gives the standard deviation of the averaged measurements.

Experiments:
Saccharomyces cerevisiae [1] = assay: protein stability index of tFT-peptide fusion (C-terminal peptide) (PSI (0-1 scale)); higher = more stable (slower turnover)
Description: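 MPS profiling in S. cerevisiae of the tFT-X12 degron library: putative degron peptides plus stable controls, 12 aa, fused to the C-terminus of a sfGFP-mCherry timer. Cells are FACS-sorted into 8 mCherry/sfGFP bins and deep-sequenced. PSI runs from 0 (unstable) to 1 (stable). Backgrounds are wild type, das1Δ and doa10Δ at 30 °C, and wild type, das1Δ, cdc34-1 and cdc53-1 at 37 °C; 2-3 technical replicates each.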

Saccharomyces cerevisiae [2] = assay: as above; conditions: genetic background: wild type; temperature: 30 C
[3] = genetic background: cdc34-1, temperature: 37 C
[4] = genetic background: cdc53-1, temperature: 37 C
[5] = genetic background: das1 deletion, temperature: 30 C
[6] = genetic background: das1 deletion, temperature: 37 C
[7] = genetic background: doa10 deletion, temperature: 30 C
[8] = genetic background: wild type, temperature: 30 C
[9] = genetic background: wild type, temperature: 37 C
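Also: PSI is a weighted mean of sequencing reads over stability bins, variants kept only with over 10 reads, mCherry proximal and sfGFP distal, peptide attached via GGGS linker.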

Row | Sequence | protein stability index (Saccharomyces cerevisiae [1]; [3]) | protein stability index (Saccharomyces cerevisiae [1]; [4]) | protein stability index (Saccharomyces cerevisiae [1]; [5]) | protein stability index (Saccharomyces cerevisiae [1]; [6]) | protein stability index (Saccharomyces cerevisiae [1]; [7]) | protein stability index (Saccharomyces cerevisiae [1]; [8]) | protein stability index (Saccharomyces cerevisiae [1]; [9]) | protein stability index (Saccharomyces cerevisiae [2])
1 | VFFTSLPPLLRA | 0.433 ± 0.015 | 0.4543 ± 0.0034 | 0.372 ± 0.021 | 0.51 ± 0.01 | 0.341 ± 0.006 | 0.37 ± 0.032 | 0.486 ± 0.013 | 0.458 ± 0.0096
2 | VFIVVEFRLSLY | 0.122 ± 0.019 | 0.243 ± 0.074 | 0.174 ± 0.038 | 0.3023 ± 0.0029 | 0.1496 ± 0.0014 | 0.17 ± 0.0089 | 0.263 ± 0.0037 | 0.231 ± 0.073
3 | VFKLGWVLCVLL | 0.286 ± 0.027 | 0.386 ± 0.0098 | 0.286 ± 0.01 | 0.389 ± 0.011 | 0.152 ± 0.0011 | 0.165 ± 0.0049 | 0.3 ± 0.0072 | 0.208 ± 0.024
4 | VFLACSMTGGDA | 0.256 ± 0.029 | 0.326 ± 0.022 | 0.373 ± 0.067 | 0.27 ± 0.0086 | 0.413 ± 0.021 | 0.36 ± 0.049 | 0.264 ± 0.016 | 0.331 ± 0.022
5 | VFLDCCLRVFVD | 0.252 ± 0.016 | 0.379 ± 0.028 | 0.228 ± 0.032 | 0.424 ± 0.014 | 0.188 ± 0.014 | 0.222 ± 0.023 | 0.389 ± 0.012 | 0.312 ± 0.011
6 | VFLLFFFGLFVF | 0.348 ± 0.02 | 0.385 ± 0.0091 | 0.295 ± 0.037 | 0.418 ± 0.025 | 0.356 ± 0.043 | 0.314 ± 0.007 | 0.414 ± 0.035 | 0.415 ± 0.041
7 | VFLPVMVFFTFS | 0.337 ± 0.013 | 0.457 ± 0.066 | 0.277 ± 0.03 | 0.49592 ± 0.00031 | 0.255 ± 0.0082 | 0.282 ± 0.016 | 0.469 ± 0.016 | 0.4 ± 0.013
8 | VFRLLLFFVFVF | 0.266 ± 0.017 | 0.183 ± 0.068 | 0.287 ± 0.046 | 0.3848 ± 0.0031 | 0.279 ± 0.0075 | 0.236 ± 0.034 | 0.354 ± 0.015 | 0.37 ± 0.0056
9 | VGAVGVCILFVW | 0.203 ± 0.0086 | 0.356 ± 0.014 | 0.242 ± 0.044 | 0.424 ± 0.0061 | 0.195 ± 0.016 | 0.232 ± 0.042 | 0.43 ± 0.013 | 0.35 ± 0.038
10 | VGFYGRWVCVAC | 0.366 ± 0.053 | 0.462 ± 0.024 | 0.287 ± 0.015 | 0.435 ± 0.0074 | 0.236 ± 0.011 | 0.265 ± 0.019 | 0.384 ± 0.0068 | 0.29 ± 0.04
11 | VGGSRGARLGVG | 0.352 ± 0.012 | 0.448 ± 0.014 | 0.389 ± 0.011 | 0.426 ± 0.0085 | 0.3945 ± 0.00071 | 0.384 ± 0.01 | 0.42 ± 0.021 | 0.386 ± 0.014
12 | VGRANLSVIRKV | 0.632 ± 0.016 | 0.733 ± 0.016 | 0.636 ± 0.014 | 0.715 ± 0.019 | 0.243 ± 0.011 | 0.29 ± 0.024 | 0.588 ± 0.013 | 0.436 ± 0.013
13 | VGSSSGRLLYLC | 0.595 ± 0.007 | 0.73 ± 0.0093 | 0.633 ± 0.0066 | 0.7466 ± 0.0065 | 0.2656 ± 0.002 | 0.302 ± 0.022 | 0.43 ± 0.0049 | 0.481 ± 0.0082
14 | VGTIVLTCIEVN | 0.0595 ± 0.022 | 0.0586 ± 0.013 | 0.191 ± 0.022 | 0.22 ± 0.0081 | 0.1519 ± 0.00081 | 0.187 ± 0.011 | 0.205 ± 0.0017 | 0.279 ± 0.017
15 | VGVVLWVWGLGD | 0.533 ± 0.026 | 0.6012 ± 0.0037 | 0.409 ± 0.033 | 0.636 ± 0.022 | 0.423 ± 0.0063 | 0.426 ± 0.032 | 0.61 ± 0.03 | 0.446 ± 0.035
16 | VGVVVVGDVLVW | 0.286 ± 0.071 | 0.375 ± 0.02 | 0.279 ± 0.03 | 0.423 ± 0.0065 | 0.2321 ± 0.0019 | 0.26 ± 0.025 | 0.402 ± 0.0091 | 0.424 ± 0.046
17 | VIQNKKKNKITS | 0.599 ± 0.048 | 0.6883 ± 0.0049 | 0.642 ± 0.013 | 0.736 ± 0.0094 | 0.177 ± 0.021 | 0.168 ± 0.015 | 0.284 ± 0.018 | 0.372 ± 0.027

Row | Sequence | protein stability index (Saccharomyces cerevisiae [1]; [3]) | protein stability index (Saccharomyces cerevisiae [1]; [4]) | protein stability index (Saccharomyces cerevisiae [1]; [5]) | protein stability index (Saccharomyces cerevisiae [1]; [6]) | protein stability index (Saccharomyces cerevisiae [1]; [7]) | protein stability index (Saccharomyces cerevisiae [1]; [8]) | protein stability index (Saccharomyces cerevisiae [1]; [9]) | protein stability index (Saccharomyces cerevisiae [2])
18 | VIYYVRVGLVLS | 0.0324 ± 0.0007 | 0.115 ± 0.053 | 0.119 ± 0.03 | 0.167 ± 0.0084 | 0.108 ± 0.016 | 0.117 ± 0.045 | 0.126 ± 0.016 | 0.203 ± 0.025
19 | VLARGFHCMYFC | 0.68 ± 0.025 | 0.736 ± 0.022 | 0.621 ± 0.022 | 0.75484 ± 0.00037 | 0.444 ± 0.022 | 0.447 ± 0.021 | 0.623 ± 0.02 | 0.484 ± 0.048
20 | VLGPRFCFVCHA | 0.555 ± 0.067 | 0.604 ± 0.03 | 0.444 ± 0.039 | 0.6194 ± 0.0023 | 0.223 ± 0.0071 | 0.253 ± 0.033 | 0.4594 ± 0.003 | 0.3455 ± 0.0025
21 | VLLSSSLVFLIS | 0.597 ± 0.022 | 0.6439 ± 0.0011 | 0.522 ± 0.016 | 0.631 ± 0.018 | 0.385 ± 0.016 | 0.416 ± 0.02 | 0.575 ± 0.0085 | 0.462 ± 0.044
22 | VLVCYFCRYISH | 0.479 ± 0.059 | 0.579 ± 0.052 | 0.413 ± 0.046 | 0.573 ± 0.011 | 0.365 ± 0.0057 | 0.398 ± 0.021 | 0.5316 ± 0.0028 | 0.485 ± 0.0091
23 | VLVTFFIRSGVS | 0.456 ± 0.0087 | 0.54 ± 0.0081 | 0.356 ± 0.042 | 0.536 ± 0.018 | 0.311 ± 0.01 | 0.338 ± 0.028 | 0.49942 ± 1.4e-06 | 0.411 ± 0.045
24 | VMFCRFPLRFGC | 0.662 ± 0.031 | 0.726 ± 0.03 | 0.631 ± 0.0071 | 0.7445 ± 0.0057 | 0.3191 ± 0.0022 | 0.348 ± 0.023 | 0.561 ± 0.021 | 0.475 ± 0.026
25 | VPTRRRGNRRPA | 0.673 ± 0.022 | 0.7259 ± 0.0048 | 0.639 ± 0.021 | 0.725 ± 0.018 | 0.641 ± 0.011 | 0.653 ± 0.015 | 0.706 ± 0.02 | 0.788 ± 0.03
26 | VQVLVAIMDGRM | 0.346 ± 0.023 | 0.4143 ± 0.0016 | 0.371 ± 0.031 | 0.387 ± 0.004 | 0.38 ± 0.039 | 0.37 ± 0.019 | 0.39 ± 0.017 | 0.354 ± 0.011
27 | VRFLSLNVLFFC | 0.54 ± 0.032 | 0.625 ± 0.022 | 0.482 ± 0.025 | 0.628 ± 0.028 | 0.222 ± 0.0066 | 0.244 ± 0.029 | 0.48 ± 0.0046 | 0.38 ± 0.033
28 | VRGWLAYLRWII | 0.58 ± 0.03 | 0.638 ± 0.026 | 0.631 ± 0.027 | 0.724 ± 0.0083 | 0.195 ± 0.012 | 0.205 ± 0.018 | 0.303 ± 0.0047 | 0.274 ± 0.018
29 | VSFGELGVEVVG | 0.709 ± 0.022 | 0.735 ± 0.041 | 0.529 ± 0.017 | 0.736 ± 0.017 | 0.538 ± 0.014 | 0.559 ± 0.018 | 0.7148 ± 0.0022 | 0.451 ± 0.022
30 | VSGEWSFLVRVQ | 0.548 ± 0.026 | 0.573 ± 0.0061 | 0.452 ± 0.025 | 0.61 ± 0.027 | 0.392 ± 0.0066 | 0.411 ± 0.024 | 0.554 ± 0.012 | 0.39 ± 0.15
31 | VSISLCVLCPVF | 0.268 ± 0.01 | 0.319 ± 0.016 | 0.258 ± 0.024 | 0.356 ± 0.0076 | 0.2408 ± 0.0018 | 0.261 ± 0.016 | 0.312 ± 0.008 | 0.349 ± 0.018
32 | VSLSWFSCCFVG | 0.497 ± 0.066 | 0.556 ± 0.03 | 0.439 ± 0.026 | 0.489 ± 0.023 | 0.376 ± 0.026 | 0.377 ± 0.019 | 0.458 ± 0.01 | 0.386 ± 0.0073
33 | VSVFSLFLFLRV | 0.25 ± 0.047 | 0.194 ± 0.022 | 0.357 ± 0.03 | 0.413 ± 0.045 | 0.531 ± 0.031 | 0.35 ± 0.03 | 0.353 ± 0.049 | 0.421 ± 0.0044
